Reference: patent US20250145690A1 (US Dept. of Health and Human Services, published 2025)

Assays:
Test in all cases: bead flow cytometry, AUC minus CD4
[1] = molecular target: T1, HCoV-NL63 spike protein (Sino Biological 40604-V08B) (HCoV-NL63, UniProt Q6Q1S2 19-1296)
T1 sequence: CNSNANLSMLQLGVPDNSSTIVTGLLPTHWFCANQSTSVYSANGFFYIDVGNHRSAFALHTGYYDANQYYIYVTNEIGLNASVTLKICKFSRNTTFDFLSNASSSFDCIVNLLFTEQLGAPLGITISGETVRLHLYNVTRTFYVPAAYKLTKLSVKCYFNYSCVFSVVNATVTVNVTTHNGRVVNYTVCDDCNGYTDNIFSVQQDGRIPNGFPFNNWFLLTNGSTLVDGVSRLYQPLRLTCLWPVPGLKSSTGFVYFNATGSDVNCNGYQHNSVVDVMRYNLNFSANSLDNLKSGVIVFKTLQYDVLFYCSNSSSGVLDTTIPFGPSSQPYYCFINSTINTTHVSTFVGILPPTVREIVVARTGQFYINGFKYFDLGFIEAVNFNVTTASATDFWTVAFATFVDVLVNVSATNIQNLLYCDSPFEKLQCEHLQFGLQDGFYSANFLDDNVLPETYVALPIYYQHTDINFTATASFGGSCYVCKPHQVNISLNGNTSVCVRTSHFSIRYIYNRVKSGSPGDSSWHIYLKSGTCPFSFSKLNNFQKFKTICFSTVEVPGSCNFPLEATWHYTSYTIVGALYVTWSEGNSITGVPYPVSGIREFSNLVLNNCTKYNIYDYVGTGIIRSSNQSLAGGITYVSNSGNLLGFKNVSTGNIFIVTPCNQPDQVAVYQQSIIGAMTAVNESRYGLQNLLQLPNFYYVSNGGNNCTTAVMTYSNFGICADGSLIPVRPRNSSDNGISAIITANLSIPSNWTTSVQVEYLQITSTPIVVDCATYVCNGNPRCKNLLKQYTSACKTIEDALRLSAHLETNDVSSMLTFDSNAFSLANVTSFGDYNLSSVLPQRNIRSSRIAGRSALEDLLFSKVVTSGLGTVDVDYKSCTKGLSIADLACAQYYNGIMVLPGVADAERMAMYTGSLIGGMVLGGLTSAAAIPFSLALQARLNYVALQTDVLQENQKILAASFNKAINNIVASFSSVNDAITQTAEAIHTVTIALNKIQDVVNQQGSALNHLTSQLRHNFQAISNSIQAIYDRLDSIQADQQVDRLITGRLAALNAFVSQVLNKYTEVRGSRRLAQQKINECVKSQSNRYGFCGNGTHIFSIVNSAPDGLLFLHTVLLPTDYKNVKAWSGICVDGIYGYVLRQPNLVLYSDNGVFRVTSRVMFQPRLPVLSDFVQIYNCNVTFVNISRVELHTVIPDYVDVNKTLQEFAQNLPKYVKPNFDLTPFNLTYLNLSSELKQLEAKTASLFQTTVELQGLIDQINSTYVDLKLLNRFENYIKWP

[2] = molecular target: T2, HCoV-229E spike protein (Sino Biological 40605-V08B) (HCoV-229E, UniProt P15423 16-1115)
T2 sequence: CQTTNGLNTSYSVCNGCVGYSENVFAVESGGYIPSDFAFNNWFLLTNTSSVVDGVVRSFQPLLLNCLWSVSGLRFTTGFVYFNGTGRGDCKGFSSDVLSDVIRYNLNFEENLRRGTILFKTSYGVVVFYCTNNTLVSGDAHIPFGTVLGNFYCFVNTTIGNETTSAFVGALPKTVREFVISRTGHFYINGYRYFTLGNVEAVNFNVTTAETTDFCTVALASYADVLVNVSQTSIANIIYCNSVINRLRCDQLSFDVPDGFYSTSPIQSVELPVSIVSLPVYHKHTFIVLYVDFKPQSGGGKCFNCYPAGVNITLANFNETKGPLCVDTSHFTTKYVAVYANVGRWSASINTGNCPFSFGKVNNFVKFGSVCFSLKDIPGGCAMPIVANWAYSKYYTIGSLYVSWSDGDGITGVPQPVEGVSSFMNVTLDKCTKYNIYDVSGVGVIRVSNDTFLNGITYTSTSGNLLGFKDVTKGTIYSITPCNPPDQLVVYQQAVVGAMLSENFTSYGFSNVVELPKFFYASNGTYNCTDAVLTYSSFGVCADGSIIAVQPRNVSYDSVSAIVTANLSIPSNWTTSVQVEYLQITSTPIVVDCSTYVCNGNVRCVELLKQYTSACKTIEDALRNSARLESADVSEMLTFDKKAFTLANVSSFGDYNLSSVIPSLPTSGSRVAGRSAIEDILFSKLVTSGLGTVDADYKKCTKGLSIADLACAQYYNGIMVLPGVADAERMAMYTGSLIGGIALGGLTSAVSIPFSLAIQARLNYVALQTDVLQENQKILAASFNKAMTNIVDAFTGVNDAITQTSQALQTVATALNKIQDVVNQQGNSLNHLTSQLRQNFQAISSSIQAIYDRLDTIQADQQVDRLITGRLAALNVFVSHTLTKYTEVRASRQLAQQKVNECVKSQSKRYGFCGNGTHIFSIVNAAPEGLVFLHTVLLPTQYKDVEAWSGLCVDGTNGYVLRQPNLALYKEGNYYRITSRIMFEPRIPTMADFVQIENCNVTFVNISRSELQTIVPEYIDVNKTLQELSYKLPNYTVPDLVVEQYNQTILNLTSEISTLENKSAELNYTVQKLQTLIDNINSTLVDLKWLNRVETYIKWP

[3] = molecular target: T3, HCoV-HKU1 spike protein (Sino Biological 40606-V08B) (HCoV-HKU1, UniProt Q0ZME7 13-1295)
T3 sequence: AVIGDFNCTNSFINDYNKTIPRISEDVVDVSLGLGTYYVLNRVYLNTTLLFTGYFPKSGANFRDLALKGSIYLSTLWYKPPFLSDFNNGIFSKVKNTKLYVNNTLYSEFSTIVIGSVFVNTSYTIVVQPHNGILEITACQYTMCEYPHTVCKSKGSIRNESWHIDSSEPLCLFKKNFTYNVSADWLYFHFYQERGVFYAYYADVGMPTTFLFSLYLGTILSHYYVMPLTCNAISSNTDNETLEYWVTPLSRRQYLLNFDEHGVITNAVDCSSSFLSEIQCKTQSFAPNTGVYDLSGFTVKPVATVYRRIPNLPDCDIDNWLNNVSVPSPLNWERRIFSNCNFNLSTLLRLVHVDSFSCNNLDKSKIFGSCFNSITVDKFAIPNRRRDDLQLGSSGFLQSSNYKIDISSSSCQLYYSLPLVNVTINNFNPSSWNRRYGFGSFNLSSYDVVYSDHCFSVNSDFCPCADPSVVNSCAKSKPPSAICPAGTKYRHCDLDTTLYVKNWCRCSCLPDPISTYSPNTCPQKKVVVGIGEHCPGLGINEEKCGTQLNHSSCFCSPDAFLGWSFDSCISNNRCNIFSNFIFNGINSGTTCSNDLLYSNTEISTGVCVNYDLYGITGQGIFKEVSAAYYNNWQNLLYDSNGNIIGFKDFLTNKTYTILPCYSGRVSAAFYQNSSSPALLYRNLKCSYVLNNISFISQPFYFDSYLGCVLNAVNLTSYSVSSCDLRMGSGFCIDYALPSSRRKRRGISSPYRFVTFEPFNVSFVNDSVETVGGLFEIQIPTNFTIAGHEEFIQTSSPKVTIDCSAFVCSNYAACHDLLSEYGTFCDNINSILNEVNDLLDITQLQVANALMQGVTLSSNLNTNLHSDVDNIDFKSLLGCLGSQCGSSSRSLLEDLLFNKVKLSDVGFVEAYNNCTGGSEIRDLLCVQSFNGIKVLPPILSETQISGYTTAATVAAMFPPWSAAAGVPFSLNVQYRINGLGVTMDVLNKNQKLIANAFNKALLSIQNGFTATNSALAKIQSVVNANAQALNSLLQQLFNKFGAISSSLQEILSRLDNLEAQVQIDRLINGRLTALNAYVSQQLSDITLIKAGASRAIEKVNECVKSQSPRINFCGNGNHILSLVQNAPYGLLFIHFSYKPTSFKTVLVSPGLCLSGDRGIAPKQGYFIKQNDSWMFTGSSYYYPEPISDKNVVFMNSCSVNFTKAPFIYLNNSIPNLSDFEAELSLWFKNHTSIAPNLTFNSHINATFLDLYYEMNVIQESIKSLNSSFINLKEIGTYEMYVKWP

[4] = molecular target: SARS-CoV-2 spike N-terminal domain (NTD), recombinant (SARS-CoV-2, UniProt P0DTC2 14-305)
[5] = molecular target: T4, SARS-CoV-2 spike S2 subunit, recombinant (SARS-CoV-2, UniProt P0DTC2 686-1213)
T4 construct: domain: S2 subunit

[6] = molecular target: SARS-CoV-2 spike receptor binding domain (RBD), recombinant (SARS-CoV-2, UniProt P0DTC2 319-541)

Measured: binding result

B1: COV44-26 (antibody, V domains shown)
VH: QVQLVQSGAEVKKPGASVKVSCKASGYTFSNFYMNWVRQAPGQGLEWVGLISPSAGYTAYAQMFQGRVTMTRDTSTSTVYMELSSLRSEDTAVYYCARVAVAGPNDYWGQGTLVTVSS
VL: EIVLTQSPGTLSLSPGERATLSCRASQSISSSYLAWYQQKPGQAPRLVIFAASTRATGIPDRFSGSGSGTDFTLTITRLEPEDFALYYCQHYRSSPPLWTFGQGTKVEIR
no binding (tested: 200 µg/mL): [1] | [2] | [3] | [4]

B2: COV89-28 (antibody, V domains shown)
VH: EVQLVESGGGLVQPGRSLRLSCAASGFTFDDYAMHWVRQAPGKGLEWVSSISWNSGSIVYADSVTGRCTITRDNAKNSLYLQMNSLRPEDTALYYCAKGYSSSPVVYYMDVWGKGTTVTVSS
VL: DIQMTQSPSSVSASVGDRVTITCRASQGIAGWFAWYQQKPGKAPKLLIYATSSLQRGVPSRFSGSGSATHFTLTITSLQPEDFATYYCQQANIFGPGTKVDIK
no binding (tested: 200 µg/mL): [1] | [2] | [5] | [6] | [4]
